Measured values as given in patent US20200277392A1 (Hoffmann-La Roche, published 2020).

T1: GST TnC hu fn5 B-C fn6 B (human, biotinylated at the C-terminal Avi-tag)
T1 chain: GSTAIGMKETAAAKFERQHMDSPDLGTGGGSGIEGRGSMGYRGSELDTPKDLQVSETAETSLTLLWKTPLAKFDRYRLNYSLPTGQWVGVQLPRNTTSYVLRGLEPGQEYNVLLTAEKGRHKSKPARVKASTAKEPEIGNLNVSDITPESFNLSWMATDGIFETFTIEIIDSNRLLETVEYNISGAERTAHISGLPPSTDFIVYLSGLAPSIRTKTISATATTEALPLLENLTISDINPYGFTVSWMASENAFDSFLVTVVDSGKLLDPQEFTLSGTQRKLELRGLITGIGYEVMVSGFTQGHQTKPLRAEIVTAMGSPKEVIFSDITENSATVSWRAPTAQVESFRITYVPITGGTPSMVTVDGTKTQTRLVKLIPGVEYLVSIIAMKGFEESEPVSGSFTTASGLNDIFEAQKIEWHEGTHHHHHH

T2: GST huTnC fn5 A1234 BC fn6 B (human, UniProt P24821 984-1798, biotinylated at the C-terminal Avi-tag)
T2 construct: also called Human GST-fused TnC fn5 A1234 BC fn6
T2 sequence: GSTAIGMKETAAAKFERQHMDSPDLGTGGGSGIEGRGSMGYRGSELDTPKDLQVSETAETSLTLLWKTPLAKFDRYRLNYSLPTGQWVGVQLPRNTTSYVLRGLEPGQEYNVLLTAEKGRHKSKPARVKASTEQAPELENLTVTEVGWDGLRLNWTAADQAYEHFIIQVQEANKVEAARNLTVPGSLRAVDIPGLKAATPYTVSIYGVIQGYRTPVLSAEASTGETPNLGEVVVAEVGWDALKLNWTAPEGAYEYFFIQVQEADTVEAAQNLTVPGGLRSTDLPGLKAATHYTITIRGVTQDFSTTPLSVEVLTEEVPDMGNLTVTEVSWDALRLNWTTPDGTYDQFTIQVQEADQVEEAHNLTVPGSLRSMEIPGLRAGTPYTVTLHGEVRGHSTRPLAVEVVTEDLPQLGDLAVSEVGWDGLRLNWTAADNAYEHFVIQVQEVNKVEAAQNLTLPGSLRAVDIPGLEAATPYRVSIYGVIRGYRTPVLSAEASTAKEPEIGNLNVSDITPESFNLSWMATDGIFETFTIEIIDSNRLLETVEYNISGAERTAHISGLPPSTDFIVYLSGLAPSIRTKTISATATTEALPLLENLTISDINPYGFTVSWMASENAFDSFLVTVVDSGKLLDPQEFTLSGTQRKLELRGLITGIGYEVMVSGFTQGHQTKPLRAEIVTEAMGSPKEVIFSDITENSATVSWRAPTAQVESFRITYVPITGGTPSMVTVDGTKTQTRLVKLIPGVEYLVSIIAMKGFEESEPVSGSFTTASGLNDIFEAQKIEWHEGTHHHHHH

T3: GST huTnC fn5 mu A124 BC hu fn6 B (human fn5 and fn6, murine A124 BC)
T3 chain: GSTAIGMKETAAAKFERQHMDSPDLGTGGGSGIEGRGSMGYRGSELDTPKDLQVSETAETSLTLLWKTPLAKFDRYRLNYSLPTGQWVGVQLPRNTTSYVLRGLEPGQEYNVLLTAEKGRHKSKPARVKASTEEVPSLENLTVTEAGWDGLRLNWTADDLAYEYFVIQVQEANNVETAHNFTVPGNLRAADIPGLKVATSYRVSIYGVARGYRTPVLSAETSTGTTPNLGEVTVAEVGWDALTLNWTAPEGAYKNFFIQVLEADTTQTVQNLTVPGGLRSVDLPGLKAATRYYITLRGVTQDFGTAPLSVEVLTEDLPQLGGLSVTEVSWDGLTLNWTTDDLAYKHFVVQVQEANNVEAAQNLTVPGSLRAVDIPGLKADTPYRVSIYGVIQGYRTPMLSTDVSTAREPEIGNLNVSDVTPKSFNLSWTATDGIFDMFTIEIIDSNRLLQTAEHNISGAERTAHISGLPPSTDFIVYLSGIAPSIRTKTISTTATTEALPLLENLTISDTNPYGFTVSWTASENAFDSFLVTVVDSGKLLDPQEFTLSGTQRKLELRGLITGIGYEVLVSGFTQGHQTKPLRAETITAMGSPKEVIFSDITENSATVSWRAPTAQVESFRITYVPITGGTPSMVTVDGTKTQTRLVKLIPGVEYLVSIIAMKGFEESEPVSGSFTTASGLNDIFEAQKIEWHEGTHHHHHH

T4: GST huTnC fn5 A1234 fn6 B (human, biotinylated at the C-terminal Avi-tag)
T4 chain: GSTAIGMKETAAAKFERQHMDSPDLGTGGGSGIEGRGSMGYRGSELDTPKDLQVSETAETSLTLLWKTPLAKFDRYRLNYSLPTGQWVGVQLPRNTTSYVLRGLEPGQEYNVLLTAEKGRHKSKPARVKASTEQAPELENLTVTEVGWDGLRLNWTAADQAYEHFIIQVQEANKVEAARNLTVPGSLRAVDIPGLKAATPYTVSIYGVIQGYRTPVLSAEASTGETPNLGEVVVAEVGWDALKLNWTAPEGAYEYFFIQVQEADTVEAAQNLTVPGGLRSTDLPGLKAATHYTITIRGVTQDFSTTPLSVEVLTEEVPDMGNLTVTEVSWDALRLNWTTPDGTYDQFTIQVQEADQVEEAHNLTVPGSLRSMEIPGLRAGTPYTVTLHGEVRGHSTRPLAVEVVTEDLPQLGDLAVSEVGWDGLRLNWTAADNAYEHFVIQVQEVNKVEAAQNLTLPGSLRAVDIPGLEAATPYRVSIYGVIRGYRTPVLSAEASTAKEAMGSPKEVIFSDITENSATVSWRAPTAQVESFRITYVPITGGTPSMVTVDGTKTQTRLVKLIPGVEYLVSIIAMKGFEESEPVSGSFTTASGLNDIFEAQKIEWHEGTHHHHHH

T5: huTnC A4 B (human, biotinylated at the C-terminal Avi-tag)
T5 chain: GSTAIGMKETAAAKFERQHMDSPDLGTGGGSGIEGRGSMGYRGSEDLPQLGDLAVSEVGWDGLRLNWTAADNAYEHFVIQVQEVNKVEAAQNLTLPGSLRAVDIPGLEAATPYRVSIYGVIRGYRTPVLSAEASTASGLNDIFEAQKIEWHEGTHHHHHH

T6: huTnC A1 B (human, biotinylated at the C-terminal Avi-tag)
T6 chain: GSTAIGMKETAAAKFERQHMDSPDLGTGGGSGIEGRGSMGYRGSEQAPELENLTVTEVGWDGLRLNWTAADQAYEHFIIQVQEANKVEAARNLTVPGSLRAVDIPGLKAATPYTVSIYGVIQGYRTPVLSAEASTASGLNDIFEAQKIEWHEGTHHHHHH

B1: anti-TnC clone 11C7, purified Fab (Fab, V domains shown)
VH: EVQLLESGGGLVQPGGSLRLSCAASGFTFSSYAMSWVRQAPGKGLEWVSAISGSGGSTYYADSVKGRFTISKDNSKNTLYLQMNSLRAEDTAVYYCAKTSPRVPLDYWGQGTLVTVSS
VL: SSELTQDPAVSVALGQTVRVTCQGDSLRSYYASWYQQKPGQAPVLVIYGKNNRPSGIPDRFSGSSSGNTASLTITGAQAEDEADYYCNSINSTRNEVFGGGTKLTVL
B2: anti-TnC clone 18D4, purified Fab (Fab, V domains shown)
VH: QVQLVQSGAEVKKPGSSVKVSCKASGGTFSSYAISWVRQAPGQGLEWMGGIIPIFGTANYAQKFQGRVTITADKSTSTAYMELSSLRSEDTAVYYCAKGNFYGGLDYWGQGTTVTVSS
VL: DIQMTQSPSTLSASVGDRVTITCRASQSISSWLAWYQQKPGKAPKLLIYDASSLESGVPSRFSGSGSGTEFTLTISSLQPDDFATYYCQQNKKFPSGTFGQGTKVEIK

Experiments:
Test in all cases: SPR ProteOn XPR36, biotinylated antigen captured on NLC chip, purified Fab as analyte, 1:1 Langmuir
GST TnC hu fn5 B-C fn6 B = target: T1, GST TnC hu fn5 B-C fn6 B
Protocol: (§1) Immobilization of antigens (ligand): Recombinant antigens were diluted with PBST (10 mM phosphate, 150 mM sodium chloride pH 7.4, 0.005% Tween 20) to 10 μg/ml, then injected at 30 μl/minute in vertical orientation. Injection of analytes: For ‘one-shot kinetics’ measurements, injection direction was changed to horizontal orientation, two-fold dilution series of purified Fab were injected simultaneously along separate channels 1-5, with association times of 200 s, and dissociation times of 240 s, respectively. Buffer (PBST) was injected along the sixth channel to provide an “in-line” blank for referencing. Association rate constants (kₒₙ) and dissociation rate constants (koff) were calculated using a simple one-to-one Langmuir binding model in ProteOn Manager v3.1 software by simultaneously fitting the association and dissociation sensorgrams. The equilibrium dissociation constant (KD) was calculated as the ratio koff/kₒₙ.

[1] = target: T2, GST huTnC fn5 A1234 BC fn6 B
Protocol: as §1

[2] = target: T3, GST huTnC fn5 mu A124 BC hu fn6 B
Protocol: as §1

[3] = target: T4, GST huTnC fn5 A1234 fn6 B
Protocol: as §1

huTnC A4 B = target: T5, huTnC A4 B
Protocol: as §1

huTnC A1 B = target: T6, huTnC A1 B
Protocol: as §1

Binder	Kd (GST TnC hu fn5 B-C fn6 B) [nM]	Kd [1] [nM]	Kd [2] [nM]	Kd [3] [nM]	Kd (huTnC A4 B) [nM]	Kd (huTnC A1 B) [nM]
B1	1	2.3	1.9			
B2		4	11.2	5	2	5.6
